Laboratory results as given in US20160237144A1.

B1: RabMab 0712pS4D3 (antibody, V domains shown)
VH: CQSLEESGGRLVKPGGSLTLTCTVSGFSLSSYAMIWVRQAPGKGLEWIGVISSLGITYYANWAKGRFTISKASTTVDLKIASPTIGDTATYFCARGFFAGGSNYYPLWGPGTLVTVSS
VL: CQASETIINWCSWYQQKPGQPPKLLIYKASNLESGVPSRFKGSGSGTEFTLTISDLECADAATYYCQQGYGYRDLENPFGGGTEVVVKG
B2: RabMab 0612pS3A8 (antibody, V domains shown)
VH: CQSVEESGGRLVTPGTPLTLTCTVSGFSLSSNAISWVRQAPGKGLEWIGIINNIGSTWYASWAKGRFTISKASSTTVDLKMTSLTTEDTATYFCARIVVNYNLGPYNLWGPGTLVTVSS
VL: AFELTQTPSSVEAAVGGTVTIKCQATENIGNALAWYQQKPGQPPKLLIYRASTLASGVPSRFKGSGSGTDFTLTISDLECADAATYYCQSYYDIYTYVFGGGTEL

What was measured:
[1] = target: TtSlyD-FKBP clone 3 C1 (Thermus thermophilus); test: SPR (Biacore), 25 C; 1253 RU 0712pS4D5 captured on goat anti-rabbit antibody, scaffold 3C1 (18 kDa) captured by it
[2] = target: TtSlyD-FKBP-A (Thermus thermophilus); test: SPR (Biacore), 25 C; antibody captured on goat anti-rabbit Fc-gamma, TtSlyD-A as analyte; kd set to the instrument limit of 1e-05 1/s
[3] = target: TtSlyD-FKBP-B (Thermus thermophilus); test: SPR (Biacore), 25 C; antibody (89 RU) captured on goat anti-rabbit Fc-gamma, TtSlyD-B as analyte; Langmuir fit
[4] = target: TtSlyD-FKBP clone 5F8 (Thermus thermophilus); test: SPR (Biacore), 25 C; 1141 RU 0712pS4D5 captured on goat anti-rabbit antibody, scaffold 5F8 (18 kDa) captured by it
[5] = target: TtSlyD-FKBP-B (Thermus thermophilus); test: SPR (Biacore B3000), antibody captured by GAR-Fcγ, scaffold in solution, 25° C.; dissociation beyond instrument limit
[6] = target: TtSlyD-FKBP-A (Thermus thermophilus); test: as above
[7] = target: TtSlyD-FKBP-B (Thermus thermophilus); test: SPR (Biacore), 25 C; antibody captured on goat anti-rabbit Fc-gamma, TtSlyD-B as analyte; kd set to the instrument limit of 1e-05 1/s
[8] = target: TtSlyD-FKBP-A (Thermus thermophilus); test: SPR (Biacore), 25 C; antibody captured on goat anti-rabbit Fc-gamma, TtSlyD-A as analyte; apparent affinity, kd set to the instrument limit
[9] = target: TtSlyD-FKBP-B (Thermus thermophilus); test: SPR (Biacore), 25 C; antibody captured on goat anti-rabbit Fc-gamma, TtSlyD-B as analyte; apparent affinity, kd set to the instrument limit
[10] = target: TtSlyD-FKBP-A (Thermus thermophilus); test: SPR (Biacore), captured antibody, TtSlyD_A as analyte 0-300 nM, Langmuir fit
[11] = target: TtSlyD-FKBP clone 3 F12 (Thermus thermophilus); test: SPR (Biacore), 25 C; 1268 RU 0712pS4D5 captured on goat anti-rabbit antibody, scaffold 3F12 (18 kDa) captured by it
[12] = target: TtSlyD-FKBP-A (Thermus thermophilus); test: SPR (Biacore), 25 C; antibody (92 RU) captured on goat anti-rabbit Fc-gamma, TtSlyD-A as analyte; Langmuir fit
[13] = target: TtSlyD-FKBP-B (Thermus thermophilus); test: SPR (Biacore), captured antibody, TtSlyD_B as analyte 0-300 nM, Langmuir fit
[14] = target: TtSlyD-FKBP-A (Thermus thermophilus); test: SPR (Biacore), 25 C; antibody (223 RU) captured on goat anti-rabbit Fc-gamma, TtSlyD-A as analyte; Langmuir fit
[15] = target: TtSlyD-FKBP-B (Thermus thermophilus); test: SPR (Biacore), 25 C; antibody (212 RU) captured on goat anti-rabbit Fc-gamma, TtSlyD-B as analyte; Langmuir fit

Chain of TtSlyD-FKBP-B (Thermus thermophilus) (main, as listed by the source): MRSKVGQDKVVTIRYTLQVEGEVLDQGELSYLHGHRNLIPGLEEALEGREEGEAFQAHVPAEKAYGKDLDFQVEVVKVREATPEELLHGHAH
Chain of TtSlyD-FKBP-A (Thermus thermophilus) (main, as listed by the source): as above
Chain of TtSlyD-FKBP clone 3 C1 (Thermus thermophilus) (main, as listed by the source): as above
Chain of TtSlyD-FKBP clone 3 F12 (Thermus thermophilus) (main, as listed by the source): as above
Chain of TtSlyD-FKBP clone 5F8 (Thermus thermophilus) (main, as listed by the source): as above

| Binder | koff [2] [s⁻¹] | koff [5] [s⁻¹] | koff [6] [s⁻¹] | koff [7] [s⁻¹] | Kd [8] [nM] | Kd [9] [nM] | Kd [10] [nM] | MR (Molar Ratio) [10] | koff [10] [s⁻¹] | kon [10] [M⁻¹ s⁻¹] | Kd [13] [nM] | MR (Molar Ratio) [13] | koff [13] [s⁻¹] | kon [13] [M⁻¹ s⁻¹] | also measured |
| --- | --- | --- | --- | --- | --- | --- | --- | --- | --- | --- | --- | --- | --- | --- | --- |
| B1 | 1e-05 | < 1e-05 | < 1e-05 | 1e-05 | 0.0299 | 0.0369 | 0.03 | 1.7 | < 1e-05 | 335000 | 0.037 | 1.9 | < 1e-05 | 271000 | MR (Molar Ratio) [1]: 2; scaffold (RU) [1]: 267 RU; MR (Molar Ratio) [3]: 1.9; kon [3]: 271000 M⁻¹ s⁻¹; MR (Molar Ratio) [4]: 2; scaffold (RU) [4]: 254 RU; MR (Molar Ratio) [11]: 2; scaffold (RU) [11]: 286 RU; MR (Molar Ratio) [12]: 1.7; kon [12]: 335000 M⁻¹ s⁻¹ |
| B2 | 1e-05 | < 1e-05 | < 1e-05 | 1e-05 | 0.00787 | 0.0234 | 0.008 | 1.2 | < 1e-05 | 1.27e+06 | 0.023 | 1.4 | < 1e-05 | 428000 | MR (Molar Ratio) [14]: 1.2; kon [14]: 1.27e+06 M⁻¹ s⁻¹; MR (Molar Ratio) [15]: 1.4; kon [15]: 428000 M⁻¹ s⁻¹ |
